{"source": "the domain aggregation screens of Martell et al. (2025)", "data": [{"test": "soluble fraction after stress (log2 fold change); higher = more stays soluble; pooled small domains, quantitative proteomics", "conditions": "stress: 50 degC", "method_in_brief": "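Pooled custom libraries of small protein domains were measured in a high-throughput format, with quantitative proteomics as the read-out. Each library was stressed at 50°C. Aggregation propensity is given as the base-two logarithm of the fold change in how much of each protein stays soluble after the stress. Higher values mean a larger share of the protein remains in solution.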", "values": [{"sequence": "HMNLGDSLFHARRKQGLSQEAVAEQLGVSRQTVSKWEANETLPDIRQSKLMAKLYHTSLDELI", "soluble fraction (log2)": 0.00427}, {"sequence": "HMFNVKAYEKAVKSYITKRKPLGEALDEEIMDELSVKFGIVDDALEDLFKQIQDAGISIVDKDGNPSPLAL", "soluble fraction (log2)": -0.619}, {"sequence": "HMEDYYKEDYYTEVLKIPKEYIKGFQYYLIEDAEFVNALNAKNKTMTSFLAKKLASDYIEIIHQEQ", "soluble fraction (log2)": -1.46}, {"sequence": "HMVSRQINVIPDDLAGLRLDQALAHLFPQHSRSRLKEWLLEDIIIVQGGPKRPKDIVSGGEIVEIKL", "soluble fraction (log2)": -0.0906}, {"sequence": "HMQVTDADFDQIRLAVLSQLKQNSLTVAELLKIIPFKEQKVMPVIRFLIDNRVLEHGTDMKLTVGNSVK", "soluble fraction (log2)": 0.0195}, {"sequence": "HMNGAITLRVRPSDEGKRLDVFVVSQLTGYTRSFVAGLIGDRHFLVNGQPKKPGYRIKSSDTISGVIPAPA", "soluble fraction (log2)": -1.21}, {"sequence": "HMRHDSEGYYRLIGVPPDADDAELKEAAKKRLMEAHPDHGGSEDEFVEVYRAYRTLTDPSARAEYDARP", "soluble fraction (log2)": 0.307}, {"sequence": "HMYQNRLFYTLKTGETVADLSKSQDINLSTIWSLNKHLYSSESEMMKAAPGQQIILPLKKLP", "soluble fraction (log2)": -0.105}, {"sequence": "HMKRPEPESPEAERRSQRAADWLVRRDRGLTAAEQDEFLQWLAIDPRHGEWFALHRSVVGEFSA", "soluble fraction (log2)": -0.192}, {"sequence": "HMSTMNRLPRHEQILKLVRANGFMPIEELARLLDVTPQTIRRDINTLSEENLLRRFHGGAALGPSVE", "soluble fraction (log2)": -0.0842}, {"sequence": "HMKPPVQVIGKAVVTASSLNVRTGPGTGHGIITSLPRNTEVELLEQQGEWYKIRRGSTVGYVHGGYLKIN", "soluble fraction (log2)": -0.00404}, {"sequence": "HMETGLSNYEFKRIREQAEALLSDGQVRRINDLVDSIKNENAEKVIRVIRFLIDTEELILEDDRVSAKKS", "soluble fraction (log2)": -0.0558}, {"sequence": "HMSQQMSYSDFVKAVSARQIREAQIQGDKIYATDSTGNRLTIIRLDNDQRLVDDMINNDVNIIGLEE", "soluble fraction (log2)": 0.156}, {"sequence": "HMNLSNVVIRKVQEMILSGELQEGDKLPPEREMTQRLGIGRPALREGLKSLEMLGLVERRHGLGNFIINKV", "soluble fraction (log2)": -0.783}, {"sequence": "HMEGNAFASTGDPEADILDITAVHPMRRDAVEELLARSGAEWSLVEGMLRDGKITMAPWEGEEFFIRS", "soluble fraction (log2)": 0.0467}, {"sequence": "HMGGALSPDFGWLAMIDPDEGRAITLYDIASGEAIAVLDTHEARVAALAWSPDGTRLASGDQNGLIVQWEI", "soluble fraction (log2)": -0.432}, {"sequence": "HMRAPETEITYTEFKTALRAGQIETATVGIEQISGKLTDGDLYRTVRVDDPDLLKDLEANHVNAAGRV", "soluble fraction (log2)": 0.104}, {"sequence": "HMAVTKVKVITESSNLNIRKGPGTDQPIVGKAAHHEIITLVNKSNDQWWLVRTNDGEEGYSYSRYLEPVT", "soluble fraction (log2)": -0.39}, {"sequence": "HMEQLESAVASRTLIGQAQGVIMERYGLSAPNAFSVLSRISQDSNTKLAEVAQQIVATRRIPG", "soluble fraction (log2)": -0.188}, {"sequence": "HMLPDLQESIDELLNIVDQRLNTSFEELVSGVNTTEKAIAFFLALLETIKWGFIKAEQTNNENKINIEKNY", "soluble fraction (log2)": 0.0699}, {"sequence": "HMYLYHDLSDEAKAMGDEYVSVEHLVLALIRYPNNAVKELFREFGITRERFLQVLSTIRGNQRVTSDNPEA", "soluble fraction (log2)": 0.0309}, {"sequence": "HMQQELEEMESGNLVRTAIDSLPINQRTAFILSAYEELPIKEIASIMNRSEGAVEQLLQRAKMNLKKKIK", "soluble fraction (log2)": 0.347}, {"sequence": "HMTLYITDQMRKILDYVATNQEIDEKAVMDLLSIQRTRAYLIAKKMTDIGLLQVQGRGKTKTYRLAARS", "soluble fraction (log2)": -1.93}, {"sequence": "HMAELNLPVRKIGGEDYYYRQVKKKETIYGISKELGITKEDIIKYNPSVASGLQRNQILYFPVKDFK", "soluble fraction (log2)": -0.0957}, {"sequence": "HMNSKKETLLSYLYNHSTWSSRNDLSNFLNVSTRQVTNYINEINKNETIVLSSNKGYKINPKFIGKN", "soluble fraction (log2)": -0.611}, {"sequence": "HMKHRFVVGEVLSIGKLQHEITLKTAQGERKFQLDKQDLPASIQDGAKVRAELNEAGRVIDVHPLK", "soluble fraction (log2)": 0.355}, {"sequence": "HMSHANAALTPRARLRLAKLIVEEHWPVATAAKMFMVSPPTARKWATRFRAEGPAGMADRSSRP", "soluble fraction (log2)": -1.46}, {"sequence": "HMASFASRAEEVMTKLLANGQPRIKEVADAMHLSSRTLQRRLEREGVSFAELLDRLRKRLAHDMLAHS", "soluble fraction (log2)": -0.813}, {"sequence": "HMAITLEQFLSVNPHIRNNLYGNAVELVKDKDFSVLSDKLKASSKWANEPSLYKILSHYDEIIS", "soluble fraction (log2)": 0.063}, {"sequence": "HMGVENDGYVLPRELKKGDTVLIADLGKEATVLSPVDRNGNVEVLAGAAKTRVKLKNLRLIE", "soluble fraction (log2)": 0.13}, {"sequence": "HMNIGSKLRYLIEEANITQRQLADALHISPSALNGYINQGKEPDYATLVRIADYFHTSTDYLLGHSNIR", "soluble fraction (log2)": -0.00171}, {"sequence": "HMLQMSDSSALEAILDEVLGSEMGQKALSDIEAGNMKAMGFIIGQSMKLSKGQANPQIINKLLQQRLK", "soluble fraction (log2)": -0.000287}, {"sequence": "HMSVLVLPMLKELTHEDREVVELFYLNDMSVREIALIISVPIGTVKSRLHRARAQLKHQIVNLNQ", "soluble fraction (log2)": -3.03}, {"sequence": "HMDIPITFEQLPAKAQAFVKQYFKIEEIASVWRDDDIHDQDYKVYFNDGSEIEFYANGDWEEV", "soluble fraction (log2)": -0.62}, {"sequence": "HMFDLENIRLTLARRLNVAAHLRPKYVAGFTLLLKQNFPEQNAEDLLNRLEHNQWLKVNQREIEYSPRLLM", "soluble fraction (log2)": -1.58}, {"sequence": "HMFNFPEEVRVQLAKSEQLRNLLIPMSETVRDALSGEELWFGRTIFNTTSKKIESWTNPGVWVE", "soluble fraction (log2)": -1.45}, {"sequence": "HMTPEPVTMYITSLTEFRSEPNTEAGIIKLLDAYEEVEMIESRGEWSKISYGDQIGYILSEFLTAENRT", "soluble fraction (log2)": -0.0121}, {"sequence": "HMVNLKQVELREHHPWVGHKIKELDISRHTLIVMIRRGDNAIVPNGDTLIKSGDIVFVFSKR", "soluble fraction (log2)": -1.05}]}]}
